Results from patent publication JP2023550785A.
Read-outs that look alike come from different tables or passages of the source.

Experiments:
[1] = molecular target: SARS-CoV-2 (BetaCoV/Wuhan-Hu-1/2019) prefusion-stabilized spike (S) protein / S ectodomain trimer (SARS-CoV-2 (BetaCoV/Wuhan-Hu-1/2019)) (UniProt P0DTC2); assay: SPR (Biacore T200), S ectodomain trimer captured, Fab as analyte
[2] = molecular target: SARS-CoV-2 (BetaCoV/Wuhan-Hu-1/2019) prefusion-stabilized spike (S) protein / S ectodomain trimer (SARS-CoV-2 (BetaCoV/Wuhan-Hu-1/2019)) (UniProt P0DTC2)

antibody S2P6 (antibody 420 1 1), human monoclonal antibody expressed as recombinant human IgG1, sequence (VH): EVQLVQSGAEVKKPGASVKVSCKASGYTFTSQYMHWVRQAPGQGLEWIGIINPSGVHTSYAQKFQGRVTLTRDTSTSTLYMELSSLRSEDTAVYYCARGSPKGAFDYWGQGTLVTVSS
antibody S2P6 (antibody 420 1 1), human monoclonal antibody expressed as recombinant human IgG1, sequence (VL): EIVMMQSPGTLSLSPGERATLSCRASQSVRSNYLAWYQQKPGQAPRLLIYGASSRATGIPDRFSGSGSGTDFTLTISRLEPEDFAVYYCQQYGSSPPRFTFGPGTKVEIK
S2P6 Fab fragment, sequence (VH): as the sequence (VH) above
S2P6 Fab fragment, sequence (VL): as the sequence (VL) above

Substance	Kd [1]	Kd [2]	koff [2]	kon [2]
S2P6 Fab fragment	7 nM			
antibody S2P6 (antibody 420 1 1), human monoclonal antibody expressed as recombinant human IgG1		< 0.001 nM	< 1e-07 s⁻¹	453000 M⁻¹ s⁻¹
